Fewer inactive variants are shown than the library holds.
B1: TPR 5TU (parent)
chain: GGAUCUUCUCGAUCUAACAAAAAAGACAAAUCUGCCACAAAGCUUGAGAGCAUCUUCGGAUGCAGAGGCGGCAGCCUUCGGUGGCGCGAUAGCGCCAACGUUCUCAACUAUGACACGCAAAACGCGUGCUCCGUUGAAUGGAGUUUAUCAUG

Variants of: B1
Experiment: polymerase ribozyme fitness, log enrichment relative to wild type (log ratio); higher = more active; in vitro selection for triplet polymerase activity
Method in brief: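 Streptavidin-bead capture of gel-excised extended constructs, followed by RT-PCR, closed a single triplicate in vitro selection round. That round began by annealing PCR-built, transcribed mutant libraries of each subunit of a heterodimeric triplet polymerase ribozyme with a biotinylated primer, the partner subunit and triplets, then incubating them frozen at −7 °C. After Illumina sequencing of inputs and outputs, genotypes needed ≥10 input reads and ≥1 read per output. Fitness is the base-2 logarithm of genotype enrichment over wild-type enrichment, using inverse-variance-weighted replicate averages.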

| Variant | polymerase ribozyme fitness (log ratio) |
| --- | --- |
| GGAUCUUCUCGAUCUAACAUAAACGACAAAUCUGCCACAAAGCUUGAGAGCAUUUUCGGAUGUAUAGGCGGCAGCCUUCGGUGACGCGAUAGCGCCAACGUUCUCAACUAUGACACGCAAAACGCGUGCUCGGUUGAAUGGAGUUUAACAUG [A20U A24C C54U C63U G65U G84A C132G U148A] | ≤ -4.2 |
| GGAUCUUCUCGAUCUAACAUAAAAGACAUAUCUGCCACAAAGUUUGGGCGCAUGUUCGGAUGCAGAGGCGGCAGCCUUCGGUGGCGCGAUAGCGUCAACGUUCUAAACUAUGACACGCAAAACGCGUGCUCCGUUGAAUGGAGUGUGUCAUG [A20U A29U C43U A47G A49C C54G C95U C105A U145G A147G] | ≤ -4.2 |
| GGAUCUUCUCGAUCUAACAUAUAAGACAAAUCUGCCACAAAGCUUGAGAGCAUCUUCGGAUGCAGAGGCGGCAGCCUUCGGUGGCGCGAUAGCGCCAACGUUCUCAACUAUGACACGCAAUACGCGUAUUCCGUUGCCUGGAGUUUAUCAUG [A20U A22U A121U G128A C129U A137C A138C] | ≤ -4.2 |
| GGAUCUUCUCGAUCUAACAUAAAAGACUAAUCUGCCACAAACCUUGAGAGCAUCUUCGGAUGCAGAGGCGGCAGCCUUCGGUGGCUCGAUAGAGCCAACGUUCUCAACUAUGAUACGCAAAACGCGUGCUCCGUUGAAUGGAGUUUAUCAUG [A20U A28U G42C G86U C93A C114U] | -4.17 |
| GGAUCUUCUCGAUCUAACAGAAAAGACAAAUCUGCCACAAAGCUUGAGAGCAUCUUCGGAUGCAGAGGCCGCAGUCUUCGGUGGCGCGAUAGAGUCAACGUUCUCAACCAUGACACGCAAAACGCGUGCUCCGUUGAAUGGAGUUUAUCAUG [A20G G70C C75U C93A C95U U109C] | ≤ -4.2 |
| GGAUCUUCUCGAUCUAACAUCAAAGACAAAUCUGCCACAAAGCUUGAGAGCAUCUUCGGAUGCAGAGGCGGCAGCCUUCGGUGGCGCGAUAGCGCCAACGUACUCAACUAUGACACGCAAAACGGGUGCUCCGUUGAAUGGAGUUUAUCAUG [A20U A21C U102A C125G] | -3.5 |
| GGAUCUUCUCGAUCUAACAUAAAGGACACAUCUGCCAGAAAGCUUGAGAGCAUCUUCGGAUGCAGAGGCGGCAGCCUUCCGUGGCGCGGUAGCGCCAACGUUCUUAACUAUGACAGGCAAAACGCGUGCUCCGUUGAAUGGAGUUUAUCAUG [A20U A24G A29C C38G G80C A89G C105U C116G] | ≤ -4.2 |
| GGAUCUUCUCGAUCUAACAUAGAAGACAAAUCUGCCACAAAGCUUGAGAGAAUCUUCGGAUGCAGAGGCGGCAGCCUUCGGUGGCGCGAUAAAGCCAACGUUCUCAACUAUGACACGCAAAACGCGUGCUCUGUUGAAUGGAGUUUAUCAUG [A20U A22G C51A G92A C93A C132U] | ≤ -4.2 |
| GGAUCUUCUCGAUCUAACAUAACAGACAAAUCUGUCACAAAGCUUGAGAGCAUCUUCGGAUGCAGAGGCGGCAGUCUUCGGUGGCGCGAUAGCGCCAACGUUGUCAACUAUGACACGCAAAACGCGUGCUCCGUUAAAUGGAGUUUAUCAUG [A20U A23C C35U C75U C103G G136A] | ≤ -4.2 |
| GGAUCUUCUCGAUCUAACAUAAUUGACAAAUCUGCCACAAAGCUUGAGAGUAUCUUCGGGUGCAGAGGCGGCAGCCUUCGGUGGGGCGAUAGCGCCAACGUUCUCAACUAUGACACGCAAAACGCGUGCUCCGUUGAAUGGAGUUUAUCAUG [A20U A23U A24U C51U A60G C85G] | ≤ -4.2 |
| GGAUCUUCUCGAUCUAACAUAAGAGACAAAUCUGCCACAAAGCUUGAGAGCAUCUUCGGAUGCAGAGGCGGCAGCCUUCGGUGGCGCAAUAGCGCCAAGGUUCUCAACUAUGACACGCAAAACGCGUGCUCCGUUGAAUGGAGUUUAUGAUG [A20U A23G G88A C99G C149G] | ≤ -4.2 |
| GGAUCUUCUCGAUCUAACAGAAAAGACAAAUCCGCCACAAAGCUUGAGAGCAUCUUCGGAUGCAGAGGCGGCAGCCUUCGGUGGCGUGGUAGCGCCAACGUUCUCAACUAUGACACGCAAAACGCGUGCUCCGUUGAAUGGAGUUUAUCAGG [A20G U33C C87U A89G U151G] | ≤ -4.2 |
| GGAUCUUCUCGAUCUAACAUAACAGACAAAUCUGCCACAAAGCUUGAGAGCAUCUUCGGAUGCAGAGGCGGCAGCCUUUGGUGGCGCGAUAGCCUCAACGUUCUCAACUAUGACACGCAAAACGCGUGCUCCGUUGAAUGGAGUUUAACAUG [A20U A23C C79U G94C C95U U148A] | ≤ -4.2 |
| GGAUCUUCUCGAUCUAACAGAAAAGACAAAUCUGCCACAAAGCUUGAGAGCAUCUUCGGAUGCAGAGGCGGCAGCCUUCAGGGGCGCGAUAGCGUCAACGUUCUCAACUAUGACACGCAAAACGCGUGCUCCGUUGAAUGGAGUUUAUCAUG [A20G G80A U82G C95U] | -1.15 |
| GGAUCUUCUCGAUCUAACAUAAAAGACUAAUCUGCCACUAAGCUUGAGAGCAUCUUCGGAUGCAGAGGCGGCAGCCUUCGGUAGCGCGAUAGCGCCAACGUUCUCAACUAUGACACGCAAAACGCGUGCUCCGUUGAAUGAAGUUUAUCAUG [A20U A28U A39U G83A G141A] | -4.1 |
| GGAUCUUCUCGAUCUAACAGAAAAGACAAAUCUGCCACAAAGCUUGAGAGCAACUACAGAUGCAGAGGUGGCAGCCUUCGGUGGCGCGAUAGUGCCAACGUUCUCAACUAUGACACGCAAAACGCGUGCUCCGUUGAAUGGAGUUUAUCAUG [A20G U53A U56A G58A C69U C93U] | -3.35 |
| GGAUCUUCUCGAUCUAACAUAAAAGACCAAUCUGCCACAAAGCUUGAGAGCAUCUUCGGAUGCAGAGGCGGCAGCCUUCGGUUGCGAGAUAGCGCCAAGGUUCUCAACUAUGACACGCAAAACGCGUGCUCCGUUGAAUAGAGUUUAUCAUG [A20U A28C G83U C87A C99G G140A] | ≤ -4.2 |
| GGAUCUUCUCGAUCUAACAGAAAAGACAAAUCUGCCACAAAGCUUGAGAGCAUCUGCGGAUGCAGAGGCGGCAGCCUUCGGUGGCGCGAUAGCGCCAACGUUCUCAACUAUGACACCCAAAACGCGUGCUCCGUUGAAUGGAGUUUAUCAUG [A20G U56G G117C] | -0.934 |
| GGAUCUUCUCGAUCUAACAUAACAGACAAAUCUGGCACAAAGCUUGAGAGCAUCUUCGGAUGCAGAGGCGGCAGCCUUCGGUGACGCGAUAGCGCCAACGUUCUCAACUAUGACACGCAAAACGUGUGCUCCGUUGAAUGGAGUUUAUCAUG [A20U A23C C35G G84A C125U] | ≤ -4.2 |
